# B1: P21 (antibody, human IgG1, kappa, V domains shown)
# VH: QVQLQQSGPGLVKPSETLSLTCTVSGGSISNYYWTWIRQPPGKGLEWIGYISDSGSTNYNPSLKSRVTISVDTSKNQFSLKLSSVTAADTAVYYCARETIVVRGFYFYVMDVWGQGTTVTVSS
# VL: AIQLTQSPSSLSASVGDRVTITCRASQGISSALAWYQQRPGKAPKLLIYDASNWESGVPSRFSGSGSGTDFTLTISSLQPEDFATYYCQQFNSYPWTFGQGTKVEIKR
# Assays:
# [1] = molecular target: extracellular matrix (ECM) proteins; assay: ECM (Matrigel) ELISA, 0.1 µM antibody
# [2] = molecular target: extracellular matrix (ECM) proteins; assay: ECM (Matrigel) ELISA, 1 µM antibody
binder,measurement,setting,value
B1,ECM score,[1],1.2
same,ECM score,[2],1.2

# From patent US20250230251A1
